Test [1] concerns the target T1, human TREM2 (hTREM2), expressed on cells (human, UniProt Q9NZC2 19-230).
T1 construct: Signal peptide 1-18 as stated left out; On CHO cells co-expressed with hDAP12; on hM2A macrophages endogenous; also called WT-TREM2; CHO-hDAP12-hTREM2
T1 sequence: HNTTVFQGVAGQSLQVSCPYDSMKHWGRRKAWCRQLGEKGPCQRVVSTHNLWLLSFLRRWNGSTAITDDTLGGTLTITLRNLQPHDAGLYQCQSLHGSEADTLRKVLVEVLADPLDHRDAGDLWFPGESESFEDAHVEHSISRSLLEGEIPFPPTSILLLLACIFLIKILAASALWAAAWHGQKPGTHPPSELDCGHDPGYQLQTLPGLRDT
Briefly: FACS, hM2A, donor 1. As for the experimental part:
(§1) To determine cellular EC₅₀ of antibodies on hM2A, CHO-hTREM2 or CHO-cynoTREM2, cells were treated o/n with 5 μM DPC333 (ADAM10 and 17 inhibitor; Qian, M et al. Drug Metab Dispos, 2007. 35:p. 1916-1925). Macrophages were detached with accutase (Biolegend, 423201) followed by resuspension in FACS buffer (PBS, 2% FBS, 0.5 mM EDTA, pH 8.0) supplemented with 50 μg/ml Fc block (BD, 564220) and incubated for at least 20 min on ice. Next cells were stained for 1 h at 4° C. in the same buffer with a broad concentration range of the different anti-TREM2 antibodies followed by a washing step with PBS (250 g, 4° C., 3 min). […] After a second washing step with PBS (250 g, 4° C., 3 min), cells were fixed with fixation buffer (Biolegend, 420801) for 15 min at RT, washed again and fluorescence was assessed using a BD FACS Canto II (BD, V96300323) or a FacsCalibur flow cytometer. Median fluorescence intensities corresponding to the degree of TREM2 antibody bound to cells were evaluated using FlowJo software (Millipore INC).
(§2) Individual values for each donor are given.
For orientation: In flow cytometry, cells or beads pass a laser one at a time.

Test [2] concerns the target T2, cynomolgus TREM2 (construct not stated) (cynomolgus, UniProt A0A2K5UY34 49-204).
T2 construct: also called cyno TREM2
T2 sequence: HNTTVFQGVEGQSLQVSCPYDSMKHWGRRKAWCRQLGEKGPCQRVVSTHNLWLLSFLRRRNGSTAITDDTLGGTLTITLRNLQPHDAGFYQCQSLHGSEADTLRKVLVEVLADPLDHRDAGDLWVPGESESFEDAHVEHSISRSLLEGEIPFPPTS
Description: SET.

Test [3] has as its target T3, hTREM2 ECD (19-174) (human, UniProt Q9NZC2 19-174).
T3 construct: Antigen in solution of the SET experiments; also called human TREM2 (SET antigen)
T3 sequence: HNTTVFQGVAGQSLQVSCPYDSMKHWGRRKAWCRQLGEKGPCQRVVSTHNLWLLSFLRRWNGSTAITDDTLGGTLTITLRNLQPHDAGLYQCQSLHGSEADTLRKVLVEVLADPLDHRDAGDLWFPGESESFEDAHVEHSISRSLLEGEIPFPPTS
Description: SET.

In test [4] the target is T1, human TREM2 (hTREM2), expressed on cells. Briefly: FACS, hM2A, median of 4 donors. The procedure: as §1, §2
The target is the same in test [5]. Description: FACS, CHO-hTREM2 cells. As for the experimental part: as §1
Test [6] shares this target. Briefly: FACS, hM2A, donor 3. As for the experimental part: as §1, §2
Test [7] shares this target. Briefly: FACS, hM2A, donor 2. As for the experimental part: as §1, §2
Test [8] has the same target. Description: cell-based or functional assay.
For test [9] the target is unchanged. Briefly: FACS, hM2A, donor 4. The procedure: as §1, §2
Test [10] has as its target T3, hTREM2 ECD (19-174). Description: SET screening.
Description: Serial dilutions of unlabeled antigen were prepared, starting with a concentration at least 10 times higher than the expected KD. Wells without antigen were used to determine Bmax values; wells containing only assay buffer were used to determine background.
The data was evaluated with XLfit (IDBS) software applying customized fitting models. […] A constant amount of diluted BEL extract (containing borate buffer, EDTA and lysozyme) was equilibrated over night with different concentrations of antigen.
Another test addresses T4, cyTREM2 ECD (19-174)-hFc (cynomolgus, UniProt A0A2K5UY34 49-204).
T4 construct: range 19-174; also called cyTREM2-ECD (19-174)-hFc-bio
T4 sequence: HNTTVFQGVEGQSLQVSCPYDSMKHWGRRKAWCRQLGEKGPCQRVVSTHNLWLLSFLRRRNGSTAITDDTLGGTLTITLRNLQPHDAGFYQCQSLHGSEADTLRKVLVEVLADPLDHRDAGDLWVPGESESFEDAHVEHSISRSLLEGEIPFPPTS
Briefly: S/BG on recombinant protein.

The target in test [11] is T5, hTREM2 ECD (19-174)-hFc (human, UniProt Q9NZC2 19-174, biotinylated in the -bio form).
T5 construct: Plain and biotinylated forms are kept as one molecule; also called hTREM2 ECD (19-174)-hFc-bio; hTREM2 Fc
T5 sequence: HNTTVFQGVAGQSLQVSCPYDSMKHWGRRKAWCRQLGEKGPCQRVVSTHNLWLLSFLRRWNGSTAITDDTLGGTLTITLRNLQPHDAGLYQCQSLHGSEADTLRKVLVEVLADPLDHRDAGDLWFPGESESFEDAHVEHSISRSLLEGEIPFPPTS
Briefly: S/BG on recombinant protein.

The target in test [12] is T6, hTREM2 IgSF-hTREM1 stalk-hFc (human, UniProt Q9NP99 135-205, limits assumed, biotinylated in the -bio form).
T6 construct: domain: stalk region; also called hTREM2 IgSF-T1 stalk-hFc-bio; hTREM2 IgSF-hTREM1 stalk-hFc-bio
T6 sequence: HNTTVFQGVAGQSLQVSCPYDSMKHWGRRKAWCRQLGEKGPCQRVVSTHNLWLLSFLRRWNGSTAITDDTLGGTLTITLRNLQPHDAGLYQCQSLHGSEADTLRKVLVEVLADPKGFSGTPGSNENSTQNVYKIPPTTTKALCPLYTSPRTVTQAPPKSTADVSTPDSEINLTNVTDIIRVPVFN
Briefly: S/BG on recombinant protein.

The target in test [13] is T7, cynomolgus TREM2 expressed on CHO cells (cynomolgus, UniProt A0A2K5UY34 49-260).
T7 construct: whole, on cells; also called CHO-cyTREM2; CHO-cynoTREM2
T7 sequence: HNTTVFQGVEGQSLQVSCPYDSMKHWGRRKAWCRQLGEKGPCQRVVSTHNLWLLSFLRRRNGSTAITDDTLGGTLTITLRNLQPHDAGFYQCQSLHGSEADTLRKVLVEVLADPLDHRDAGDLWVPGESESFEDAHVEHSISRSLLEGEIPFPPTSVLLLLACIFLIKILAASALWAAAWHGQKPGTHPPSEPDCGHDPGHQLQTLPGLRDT
Briefly: FACS, CHO-cyTREM2 cells. As for the experimental part: as §1

For test [14], the target named is T8, cyTREM2 ECD (19-174)-APP-Avi (cynomolgus, UniProt A0A2K5UY34 49-204).
T8 construct: range 19-174
T8 sequence: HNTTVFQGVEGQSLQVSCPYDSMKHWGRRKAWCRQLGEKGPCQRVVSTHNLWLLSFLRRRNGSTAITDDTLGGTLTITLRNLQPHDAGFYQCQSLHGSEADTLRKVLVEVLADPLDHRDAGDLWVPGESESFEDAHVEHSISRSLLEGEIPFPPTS
Description: SPR, label free kinetics. As for the experimental part: (§3) For a precise assessment of the binding affinities of the antibodies affinity-determination by measuring kinetic rate constants was performed by SPR. In addition a comparison to cynomolgus TREM2 was performed (Table 21).
Background: Surface plasmon resonance follows binding to a sensor surface in real time, without labels.

Test [15] has as its target T5, hTREM2 ECD (19-174)-hFc. Description: SPR, label free kinetics. The procedure: as §3
For test [16], the target named is T1, human TREM2 (hTREM2), expressed on cells. Briefly: cell-based or functional assay. This is another data set of the same source.
The target is the same in test [17]. Briefly: cell-based or functional assay. The source holds these as a separate data set.
Test [18] deals with proteins of the protein panel profiling (3P), 25 in total. Briefly: protein panel profiling (3P), ECL.
Test [19] has as its target T1, human TREM2 (hTREM2), expressed on cells. Description: FACS, hM2A macrophages. As for the experimental part: as §1, §2
Test [20] has the same target. Description: cell-based or functional assay. The source holds these as a separate data set.
Test [21] shares this target. Description: FACS, CHO-hDAP12-hTREM2 cells.
Test [22] shares this target. Description: FACS, hM2A macrophages. This is another data set of the same source.

One may read the EC50 as the concentration needed to bring the measured effect to its halfway point.

B1: MOR044746 (antibody, V domains shown)
VH: QVQLQQSGPGLVKPSQTLSLTCAISGDSVSSSSAAWNWIRQSPSRGLEWLGHIGYRSKWYNEYAVSVKSRITINPDTSKNQFSLQLNSVTPEDTAVYYCARGMYGSVPYKEGYYFDIWGQGTLVTVSS
VL: DIQMTQSPSSLSASVGDRVTITCRASQGISSDLNWYQQKPGKAPKLLIYAASNLQSGVPSRFSGSGSGTDFTLTISSLQPEDFATYYCQQYTDESMTFGQGTKVEIK
notes: light chain 63); Human IgG vector of the campaign: IgG1f LALA; Matured from MOR042493; VH6 k1; also called MOR44746
With B1, the EC50 in test [1] came out at 0.73 nM; in [4], 0.59 nM; in test [5] it was 0.16 nM; in [6] it was 0.54 nM; in test [7], 0.54 nM; in test [9] it was 0.64 nM. Moreover, the EC50 in [13] is 0.65 nM; in test [19], less than 2 nM. Further, the Kd in test [2] is 0.004 nM; with hTREM2 ECD (19-174) [3], 0.003 nM; in the test with hTREM2 ECD (19-174) [10], less than 0.6 nM; in test [14], 0.004 nM; in the test with hTREM2 ECD (19-174)-hFc [15] it was 0.003 nM. Moreover, the “TREM2 activation (fold in RGA)” value in test [8] is 1.3 fold. Also, the S/BG with cyTREM2 ECD (19-174)-hFc was greater than 5; with hTREM2 ECD (19-174)-hFc [11], greater than 5; in test [12] it was greater than 20. In addition, the “Fold TREM2 cell surface increase compared to isotype (hM2A, 100 nM o/n)” value in test [16] was determined as 5.1 fold. Moreover, the “Internalization compared to parental after 6 h” value in [17] is 0.7 fold of parental. In test [17], the “Internalization; fold over background after 6 h” value came to 33.3 fold. Besides, the Cumulative binding ratio in [18] was less than 150.

B2: MOR041877 (full IgG) (antibody, V domains shown)
VH: QVQLKESGPALVKPTQTLTLTCTFSGFSLSTSGVGVSWIRQPPGKALEWLALIFSDHDKIYSTSLKTRLTISKDTSKNQVVLTMTNMDPVDTATYYCARTLIDRSVYFDYWGQGTLVTVSS
VL: DIVLTQPPSVSGAPGQRVTISCSGSSSNIGHHYVSWYQQLPGTAPKLLIYDNTNRPSGVPDRFSGSKSGTSASLAITGLQAEDEADYYCATWDGLMNSIVFGGGTKLTVLG
In the case of B2, the “RGA in THP-B5 cells (fold increase over BG)” value in test [20] is 2.1 fold. Moreover, the figures for the EC50 in test [21] and in [22] were 0.5 nM and 0.7 nM, respectively.

B3: MOR044698 (antibody, V domains shown)
VH: QVQLVQSGAEVKKPGASVKVSCKASGYTFTGYHMSWVRQAPGQGLEWMGVINPVSGNTVYAQKFQGRVTMTRDTSISTAYMELSRLRSEDTAVYYCARIPSYTYAFDYWGQGTLVTVSS
VL: DIQMTQSPSSLSASVGDRVTITCRASQDISNYLAWYQQKPGKAPKLLIYRASSLQSGVPSRFSGSGSGTDFTLTISSLQPEDFATYYCFQYRHMPSQTFGQGTKVEIK
notes: light chain 26); Human IgG vector of the campaign: IgG1f LALA; Matured from MOR042596; VH1B k1; also called MOR44698
For the molecule B3, the EC50 was 0.86 nM in test [1]; 0.56 nM in test [4]; 0.2 nM in test [5]; 0.55 nM in [6]; 0.55 nM in test [7]; 0.56 nM in test [9]. Besides, the EC50 in test [13] was 0.46 nM; in test [19] it was less than 2 nM. Further, the Kd in [2] is 0.039 nM; with hTREM2 ECD (19-174) [3] it was 0.046 nM; with hTREM2 ECD (19-174) [10] it was less than 0.6 nM; in test [14], 0.039 nM; in the test with hTREM2 ECD (19-174)-hFc [15], 0.046 nM. Besides, in test [8], the “TREM2 activation (fold in RGA)” value turned out to be 1 fold. For the same molecule, the results for the S/BG (with cyTREM2 ECD (19-174)-hFc; with hTREM2 ECD (19-174)-hFc [11]; in test [12]) were greater than 5, greater than 5 and greater than 20, respectively. Moreover, the “Fold TREM2 cell surface increase compared to isotype (hM2A, 100 nM o/n)” value in test [16] amounted to 7.9 fold. The “Internalization compared to parental after 6 h” value in test [17] was 1.5 fold of parental. For the same molecule, in test [17], the “Internalization; fold over background after 6 h” value stood at 57.1 fold. Besides, the Cumulative binding ratio in [18] is less than 150.
